According to patent US20080280313:

T1: CKI phosphopeptide substrate KRRRALS(p)VASLPGL (New England Biolabs)
T1 chain: KRRRALSVASLPGL

T2: partially dephosphorylated α-casein (Sigma), P02662
T2 chain: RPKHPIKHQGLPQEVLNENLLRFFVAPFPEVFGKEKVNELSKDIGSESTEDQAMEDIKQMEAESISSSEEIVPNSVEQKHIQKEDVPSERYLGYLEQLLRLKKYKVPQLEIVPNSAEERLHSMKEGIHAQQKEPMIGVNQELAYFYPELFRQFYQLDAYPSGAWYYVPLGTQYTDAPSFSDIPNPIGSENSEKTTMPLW

T3: β-casein (Sigma), P02666
T3 chain: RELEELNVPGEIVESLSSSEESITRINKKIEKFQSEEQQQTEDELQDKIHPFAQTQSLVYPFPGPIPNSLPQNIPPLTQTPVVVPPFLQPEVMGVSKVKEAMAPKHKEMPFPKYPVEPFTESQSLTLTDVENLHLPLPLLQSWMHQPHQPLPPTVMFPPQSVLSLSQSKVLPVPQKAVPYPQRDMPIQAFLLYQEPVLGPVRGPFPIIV

T4: Syntide-2 substrate PLARTLSVAGLPGKK (Calbiochem)
T4 chain: PLARTLSVAGLPGKK

T5: CKII substrate RRREEETEEE (New England Biolabs)
T5 chain: RRREEETEEE

T6: CKI substrate peptide RRKDLHDDEEDEAMSITA (Calbiochem)
T6 chain: RRKDLHDDEEDEAMSITA

T7: CKII substrate RRADDSDDDDD (Calbiochem)
T7 chain: RRADDSDDDDD

T8: CKI substrate DDDEESITRR (Promega)
T8 chain: DDDEESITRR

T9: kemptide LRRASLG (Promega)
T9 chain: LRRASLG

T10: CaM kinase II substrate (281-291) MHKNETVECLK (Calbiochem)
T10 chain: MHKNETVECLK

B1: native EtCKIα, partially purified from Eimeria tenella unsporulated oocysts (protein)
chain: MDVRVGGKYRLGRKIGSGSFGDIYLGTNISTGDEVAIKLESVRSRHPQLIYESKLYKILTGGIGIPTLYWYGIEGDYNVMIIELLGPSLEDLFSICNRKLSLKTVLMLADQMLNRIEFVHSRHFIHRDIKPDNFLIGRGKKMSIVFAIDFGLAKKYRDPRTQSHIPYREGKNLTGTARYASVNTHLGIEQSRRDDLEALGYVLMYFNRGSLPWQGLKATTKKDKYDKIMEKKMSTPIEVLCKQFPFEFITYLNYCRSLRFEDRPDYSYLRRLFKDLFFREGYQYDFIFDWTFLHAERERERQRRSMVNQGAESGNQWRRDASGRDPLGRLPQLEP
B2: FLAGTgCKIβ, N-terminal FLAG epitope tagged Toxoplasma gondii casein kinase I beta (protein)
chain: AHHQDTRNHTGVGPSSSIPLKDLKIAGVWKIGRKIGSGSFGDIYKGLNSQTGQEVALKVESTKAKHPQLLYEYKLLKHLQGGTGIAQVFCCETAGDHNIMAMELLGPSLEDVFNLCNRTFSLKTILLLADQFLQRVEYIHSKNFIHRDIKPDNFLLGGAGNQNTIYVIDFGLAKKFRDPKTHQHIPYRENKNLTGTARYASISAHLGSEQSRRDDLEAVGYVLMYFCRGGTLPWQGIKANTKQEKYHKIMEKKMSTPVEVLCKGYPSEFATYLHYCRSLRFEDRPDYAYLKRLFRDLYIKEGYDDSDREFDWTVKLSSRSLGPPSSRAQHVLLSQDTRTRGKRETDRPVAARSGDRERGIHFSNGNVGNPSMATNPGGLSVMVHERTSLVDQGDRGSRETSTRKEDAKDGRWPGGRFSCLPLLCRRSPTKA

Legend:
[1] = biological target: T1, CKI phosphopeptide substrate …
[2] = biological target: T2, partially dephosphorylated α-casein …
β-casein (Sigma), P02666 = biological target: T3, β-casein (Sigma), P02666
[3] = biological target: T4, Syntide-2 substrate PLARTLSVAGLPGKK …
[4] = biological target: T5, CKII substrate RRREEETEEE (New England …)
[5] = biological target: T6, CKI substrate peptide …
[6] = biological target: T7, CKII substrate RRADDSDDDDD (Calbiochem)
[7] = biological target: T8, CKI substrate DDDEESITRR (Promega)
[8] = biological target: T9, kemptide LRRASLG (Promega)
[9] = biological target: T10, CaM kinase II substrate (281-291) …

Row | Protein | Vmax relative to the α-casein substrate [1] | Km(app) [2] [µM] | Vmax(app) (nmole min^-1 mg^-1) [2] | Km(app) (β-casein (Sigma), P02666) [µM] | Vmax(app) (nmole min^-1 mg^-1) (β-casein (Sigma), P02666) | kinase activity with peptide substrate [3] | kinase activity with peptide substrate [4] | Km(app) [5] [µM] | Vmax(app) (nmole min^-1 mg^-1) [5] | kinase activity with peptide substrate [6] | kinase activity with peptide substrate [7] | Km(app) [1] [µM] | Vmax(app) (nmole min^-1 mg^-1) [1] | kinase activity with peptide substrate [8] | kinase activity with peptide substrate [9]
1 | B1 | the phosphopeptide yielded a much higher Vmax (2.5× greater activity) than the α-casein substrate | – | – | – | – | – | – | – | – | – | – | – | – | – | –
2 | B2 | – | 5 | 12 | 12 | 16 | failed to show concentration dependent kinase activity | failed to show concentration dependent kinase activity | 15 | 8 | failed to show concentration dependent kinase activity | failed to show concentration dependent kinase activity | 79 | 37 | failed to show concentration dependent kinase activity | failed to show concentration dependent kinase activity
